Experimental data published in the RNAGym collection of RNA variant scans (doi:10.1021/acssynbio.7b00057).

B1: Pistol ribozyme (parent)
chain: GGGUCGUUGUUCCAUAAUCGCGUGGAUAUGGCACGCAAGUUUCUACCGGGCACCGUAAAUGUCCGACUGGAGCCGUUCGGGCGGCUAUAAACAGACCUCAGGCCCGAAGCGUGGCGGCACCUGCCGCCGGUGGUAAAAAAGAUCGGAAGAGCACACGUCU

Variants of: B1
Experiment: aptazyme ON/OFF ratio, guanine; higher = stronger switching; co-transcriptional cleavage with and without guanine

| Variant | aptazyme ON/OFF ratio |
| --- | --- |
| U7G U8G G9A U10G C12U | 1.29 |
| U7G U8G G9A U10G C12G | 1.28 |
| U7G U8G G9A U10G C12A | 1.27 |
| U7G U8G G9A U10C U11G C12A C13U | 1.19 |
| U7G U8G G9A U10C U11G C12A C13G | 1.14 |
| U7G U8G G9A U10C U11G C12A C13A | 1.11 |
| U7G U8C U10G U11C | 2.14 |
| U7G U8C U10G U11G | 1.31 |
| U7G U8C U10G U11A | 1.21 |
| U7G U8G G9A U10A C13G | 1.17 |
| U7G U8G G9A U10A C13A | 1.28 |
| U7G U8G G9A U10A C13U | 1.37 |
| U7G U8G G9A U10C U11A C12U C13G | 1.08 |
| U7G U8G G9A U10C U11A C12U C13A | 1.06 |
| U7G U8G G9A U10C U11A C12U C13U | 1.08 |
| U7G U8G G9A U10C C12A C13U | 1.32 |
| U7G U8G G9A U10C C12A C13G | 1.14 |
| U7G U8G G9A U10C C12A C13A | 1.13 |
| U7G U8C U11G C12U C13G | 1.08 |
| U7G U8C U11G C12U C13A | 1.14 |
| U7G U8C U11G C12U C13U | 1.22 |
| U7G U8G G9A U10G U11C C12G C13U | 1.28 |
| U7G U8G G9A U10G U11C C12G C13G | 1.13 |
| U7G U8G G9A U10G U11C C12G C13A | 1.16 |

| Variant | aptazyme ON/OFF ratio |
| --- | --- |
| U7G U8G G9A U10C U11C C12U | 1.1 |
| U7G U8G G9A U10C U11C C12G | 1.21 |
| U7G U8G G9A U10C U11C C12A | 1.22 |
| U7G U8C U11A C12A C13G | 1.1 |
| U7G U8C U11A C12A C13U | 1.25 |
| U7G U8C U11A C12A C13A | 1.23 |
| U7G U8G G9A U10C U11C C13A | 0.99 |
| U7G U8G G9A U10C U11C C13G | 0.991 |
| U7G U8G G9A U10C U11C C13U | 1.01 |
| U7G U8G G9A U10C U11G C12U C13U | 1.38 |
| U7G U8G G9A U10C U11G C12U C13G | 1.16 |
| U7G U8G G9A U10C U11G C12U C13A | 1.27 |
| U7G U8G G9A C12G C13G | 1.14 |
| U7G U8G G9A C12G C13U | 1.3 |
| U7G U8G G9A C12G C13A | 1.14 |
| U7G U8G G9A U10C U11C C12U C13U | 1.13 |
| U7G U8G G9A U10C U11C C12U C13A | 1.04 |
| U7G U8G G9A U10C U11C C12U C13G | 1.36 |
| U7G U8C U11A C12G C13G | 1.07 |
| U7G U8C U11A C12G C13A | 1.09 |
| U7G U8C U11A C12G C13U | 1.12 |
| U7G U8G G9A U10C U11A C13A | 1.2 |
| U7G U8G G9A U10C U11A C13U | 1.2 |
| U7G U8G G9A U10C U11A C13G | 1.1 |

| Variant | aptazyme ON/OFF ratio |
| --- | --- |
| U7G U8C U10G U11G C12U C13G | 1.29 |
| U7G U8C U10G U11G C12U C13U | 1.34 |
| U7G U8C U10G U11G C12U C13A | 1.26 |
| U7G U8G G9A U10A U11A C12G C13G | 1.1 |
| U7G U8G G9A U10A U11A C12G C13U | 1.33 |
| U7G U8G G9A U10A U11A C12G C13A | 1.15 |
| U7G U8G G9A U10A U11A C12A C13U | 1.38 |
| U7G U8G G9A U10A U11A C12A C13G | 1.07 |
| U7G U8G G9A U10A U11A C12A C13A | 1.11 |
| U7G U8C U10G U11C C12G | 2.08 |
| U7G U8C U10G U11C C12A | 1.57 |
| U7G U8C U10G U11C C12U | 1.34 |
| U7G U8G G9A U10C C12G C13A | 1.26 |
| U7G U8G G9A U10C C12G C13G | 1.16 |
| U7G U8G G9A U10C C12G C13U | 1.33 |
| U7G U8G G9A U10A U11G C12A C13G | 1.03 |
| U7G U8G G9A U10A U11G C12A C13U | 1.1 |
| U7G U8G G9A U10A U11G C12A C13A | 1.13 |
| U7G U8G G9A U10C U11C C12G C13A | 1.16 |
| U7G U8G G9A U10C U11C C12G C13G | 1.03 |
| U7G U8G G9A U10C U11C C12G C13U | 1.12 |
| U7G U8G G9A U10A C12A | 1.46 |
| U7G U8G G9A U10A C12U | 1.52 |
| U7G U8G G9A U10A C12G | 1.5 |

| Variant | aptazyme ON/OFF ratio |
| --- | --- |
| U7G U8G G9A U10G U11C C13A | 1.15 |
| U7G U8G G9A U10G U11C C13U | 1.08 |
| U7G U8G G9A U10G U11C C13G | 1.08 |
| U7G U8G G9A | 3.82 |
| U7G U8G G9A U10G U11A C12G | 1.15 |
| U7G U8G G9A U10G U11A C12U | 1.13 |
| U7G U8G G9A U10G U11A C12A | 1.07 |
| U7G U8G G9A U10G | 1.83 |
| U7G U8G G9A U10C | 3.59 |
| U7G U8G G9A U10A | 2.16 |
| U7G U8C U10G U11C C12U C13U | 1.47 |
| U7G U8C U10G U11C C12U C13G | 1.23 |
| U7G U8C U10G U11C C12U C13A | 1.4 |
| U7G U8G G9A U10G U11G C12A | 1.21 |
| U7G U8G G9A U10G U11G C12G | 1.3 |
| U7G U8C U10C U11G C12U | 1.3 |
| U7G U8G G9A U10C U11A C12A C13U | 1.25 |
| U7G U8G G9A U10C U11A C12A C13G | 1.15 |
| U7G U8G G9A U10C U11A C12A C13A | 1.2 |
| U7G U8C U11A C12U C13G | 1.14 |
| U7G U8C U11A C12U C13A | 1.2 |
| U7G U8C U11A C12U C13U | 1.21 |
| U7G U8G G9A U10C U11C C12A C13U | 1.11 |
| U7G U8G G9A U10C U11C C12A C13A | 1.19 |

| Variant | aptazyme ON/OFF ratio |
| --- | --- |
| U7G U8G G9A U10C U11C C12A C13G | 1.2 |
| U7G U8C U11C C12U | 1.57 |
| U7G U8C U11C C12A | 1.69 |
| U7G U8C U11C C12G | 1.38 |
| U7G U8C U10G U11G C13G | 1.26 |
| U7G U8C U10G U11G C13U | 1.3 |
| U7G U8C U10G U11G C13A | 1.22 |
| U7G U8G G9A U10G U11A C12G C13U | 1.26 |
| U7G U8G G9A U10G U11A C12G C13G | 1.18 |
| U7G U8G G9A U10G U11A C12G C13A | 1.13 |
| U7G U8C U11C C12A C13U | 1.46 |
| U7G U8C U11C C12A C13G | 1.26 |
| U7G U8C U11C C12A C13A | 1.37 |
| U7G U8G G9A U10C C12U C13A | 1.11 |
| U7G U8G G9A U10C C12U C13G | 1.18 |
| U7G U8G G9A U10C C12U C13U | 1.29 |
| U7G U8C U11C C12U C13U | 1.45 |
| U7G U8C U11C C12U C13G | 1.3 |
| U7G U8C U11C C12U C13A | 1.34 |
| U7G U8G G9A U10C U11G C13U | 1.19 |
| U7G U8G G9A U10C U11G C13G | 1.28 |
| U7G U8G G9A U10C U11G C13A | 1.27 |
| U7G U8G G9A C12G | 1.59 |
| U7G U8G G9A C12A | 1.41 |

| Variant | aptazyme ON/OFF ratio |
| --- | --- |
| U7G U8G G9A C12U | 1.68 |
| U7G U8C U10G U11C C12A C13A | 1.38 |
| U7G U8C U10G U11C C12A C13U | 1.33 |
| U7G U8C U10G U11C C12A C13G | 1.17 |
| U7G U8C U10G U11G C12A | 1.18 |
| U7G U8C U10G U11G C12G | 1.22 |
| U7G U8C U10G U11G C12U | 1.43 |
| U7G U8G G9A U10G C12G C13U | 1.55 |
| U7G U8G G9A U10G C12G C13G | 1.16 |
| U7G U8G G9A U10G C12G C13A | 1.11 |
| U7G U8G G9A U10A C12U C13G | 1.15 |
| U7G U8G G9A U10A C12U C13A | 1.22 |
| U7G U8G G9A U10A C12U C13U | 1.35 |
| U7G U8C U10G U11A C13A | 1.16 |
| U7G U8C U10G U11A C13U | 1.19 |
| U7G U8C U10G U11A C13G | 1.13 |
| U7G U8C U11G C12G | 1.22 |
| U7G U8C U11G C12U | 1.28 |
| U7G U8C U11G C12A | 1.14 |
| U7G U8G G9A U10G U11A C13A | 1.11 |
| U7G U8G G9A U10G U11A C13G | 1.11 |
| U7G U8G G9A U10G U11A C13U | 1.12 |
| U7G U8C U11A C13U | 1.32 |
| U7G U8C U11A C13G | 1.03 |

| Variant | aptazyme ON/OFF ratio |
| --- | --- |
| U7G U8C U11A C13A | 1.14 |
| U7G U8G G9A C12U C13A | 1.27 |
| U7G U8G G9A C12U C13U | 1.41 |
| U7G U8G G9A C12U C13G | 1.22 |
| U7G U8G G9A U10C C13A | 1.12 |
| U7G U8G G9A U10C C13U | 1.59 |
| U7G U8G G9A U10C C13G | 1.12 |
| U7G U8C U10G U11A C12U C13G | 1.15 |
| U7G U8C U10G U11A C12U C13A | 1.13 |
| U7G U8C U10G U11A C12U C13U | 1.17 |
| U7G U8G C12U C13U | 1.5 |
| U7G U8G C12U C13G | 1.39 |
| U7G U8G C12U C13A | 1.31 |
| U7G U8G C13U | 1.7 |
| U7G U8G C13A | 1.4 |
| U7G U8G C13G | 1.42 |
| U7G U8C U11G | 1.01 |
| U7G U8C U11C | 1.53 |
| U7G U8C U11A | 1.39 |
| U7G U8G C12G C13A | 1.4 |
| U7G U8G C12G C13G | 1.36 |
| U7G U8G C12G C13U | 1.37 |
| U7G U8G G9A U10C U11G C12G | 1.53 |
